Assay [1] concerns the target IL-5 mutant 96F to Alanine, with His-tag (human) (UniProt P05113). Briefly: capture ELISA: His-tagged IL-5 from HEK293E supernatant captured with murine anti-His antibody, detected with Goat-anti-Human-Fc-Specific-HRP; mean of four wells.
In assay [2] the target is IL-5 mutant 86C to Alanine, with His-tag (human) (UniProt P05113). The description is as above.
The target in assay [3] is IL-5 mutant 104L to Alanine, with His-tag (human) (UniProt P05113). The assay is described as above.
Assay [4] concerns the target human IL-5 protein (purchased from Beijing Yiqiao Shenzhou) (human) (UniProt P05113). Briefly: cell-based or functional assay.
Assay [5] has the same target. In words: SPR Biacore T200, antibody captured on Protein A/G, IL-5 as analyte. In general terms: SPR reads the build-up and loss of mass on a sensor chip optically.

Chain of Nucala (Mepolizumab) (antibody) (VH): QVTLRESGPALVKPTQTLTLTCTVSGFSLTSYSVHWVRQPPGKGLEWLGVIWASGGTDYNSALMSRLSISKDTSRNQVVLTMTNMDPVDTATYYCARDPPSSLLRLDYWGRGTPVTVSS
Chain of Nucala (Mepolizumab) (antibody) (VL): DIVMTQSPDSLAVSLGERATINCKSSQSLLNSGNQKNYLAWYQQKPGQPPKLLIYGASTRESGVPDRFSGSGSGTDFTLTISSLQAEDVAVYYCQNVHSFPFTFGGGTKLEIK

By Kd is commonly meant the equilibrium constant for the complex coming apart. A lower Kd goes with higher affinity. For the substance Nucala (Mepolizumab) (antibody), the OD450 in assay [1] was determined as 0.19; in assay [2] it was 0.0967; in assay [3] it was 0.109. Further, the IC50 for inhibiting IL-5-induced TF-1 cell proliferation (Nucala) in assay [4] is 0.0708 µg/mL. The substance also gave a Kd in assay [5] of 0.201 nM.

(Values after patent publication US20210171621A1.)
